Results from patent publication US7196181B1, “Sequences encoding novel human thyroid peroxidase proteins and polypeptides” (Quest Diagnostics Investments, Inc., priority 1989, dated 2007).
Values joined by “and” are separate entries in the source; they are usually repeats but may differ in a detail not shown here. Identical values can stand only once. Values belong to the molecule of their own block, whether it stands above or below them.

How the values were obtained:
[1] = biological target: secreted truncated recombinant human thyroid peroxidase (hTPO-M1) (human) (UniProt P07202); experiment: Scatchard analysis, 125I-TPO
[2] = biological target: secreted truncated recombinant human thyroid peroxidase (hTPO-M1) (human) (UniProt P07202); experiment: Scatchard analysis; unlabeled TPO competing with 125I-TPO for the Fab
[3] = biological target: secreted truncated recombinant human thyroid peroxidase (hTPO-M1) (human) (UniProt P07202); experiment: competition with serum TPO autoantibodies (5 sera); Protein A precipitation
[4] = biological target: secreted truncated recombinant human thyroid peroxidase (hTPO-M1) (human) (UniProt P07202); experiment: Scatchard analysis; 125I-TPO with unlabeled TPO, anti-kappa/Sac-cel precipitation
[5] = biological target: secreted truncated recombinant human thyroid peroxidase (hTPO-M1) (human) (UniProt P07202); experiment: confluent plaque lysis assay; competition of unlabeled TPO with 125I-TPO, densitometry
[6] = biological target: secreted truncated recombinant human thyroid peroxidase (hTPO-M1) (human) (UniProt P07202); experiment: competition ELISA on secreted TPO; competitor: serum lambda TPO autoantibodies (4 sera)
[7] = biological target: secreted truncated recombinant human thyroid peroxidase (hTPO-M1) (human) (UniProt P07202); experiment: competition ELISA on secreted TPO; competitor: serum IgG1 TPO autoantibody, first patient; set-up: concentration or dose not given beside the values
[8] = biological target: secreted truncated recombinant human thyroid peroxidase (hTPO-M1) (human) (UniProt P07202); experiment: competition ELISA on secreted TPO; competitor: serum IgG2 TPO autoantibody, third patient; set-up: concentration or dose not given beside the values
[9] = biological target: secreted truncated recombinant human thyroid peroxidase (hTPO-M1) (human) (UniProt P07202); experiment: competition ELISA on secreted TPO; competitor: serum IgG4 TPO autoantibody, first patient; set-up: concentration or dose not given beside the values
[10] = biological target: secreted truncated recombinant human thyroid peroxidase (hTPO-M1) (human) (UniProt P07202); experiment: competition ELISA on secreted TPO; competitor: serum IgG1 TPO autoantibody, second patient; set-up: concentration or dose not given beside the values
[11] = biological target: secreted truncated recombinant human thyroid peroxidase (hTPO-M1) (human) (UniProt P07202); experiment: competition ELISA on secreted TPO; competitor: serum IgG4 TPO autoantibody, second patient; set-up: concentration or dose not given beside the values
[12] = biological target: secreted truncated recombinant human thyroid peroxidase (hTPO-M1) (human) (UniProt P07202); experiment: competition with serum TPO autoantibodies (11 sera); SP1.2 10^-10 to 10^-7 M; Protein A precipitation
CHO-TPO12b cells = experiment: Radiolabeled D-glucosamine incorporation into proteins, control experiment; assay type: cell-based, Chinese hamster; settings: tunicamycin treatment under similar conditions (0.5 μg/ml, 20 hours); mean±S.D.; n=3
Description: Human TPO contains 5 potential glycosylation sites. It was therefore examined whether carbohydrate moieties are important in the conformation of the epitope(s) in the human TPO antigen(s) recognized by Hashimoto's sera. Western blot analyses were performed on proteins extracted from CHO-TPO12b cells pre-cultured for 20 hours in 0.5 μg/ml tunicamycin, an inhibitor of protein glycosylation. This length of time was chosen because it was the longest tolerated without evidence of significant toxicity (i.e., cell loss). […] In a control experiment, tunicamycin treatment under similar conditions decreased radiolabeled D-glucosamine incorporation into proteins by 56.3±4.8% (mean±S.D.; n=3).

Thyroid Peroxidase (TPO) = experiment: Assay of human TPO enzymatic activity (guaiacol and iodide peroxidase); assay type: biochemical; settings: conditioned medium of transfected CHO cells, collected after 3 days of culture
Description: […] P., et al., Endocrinol. 116:1493-1500 (1985)). In later experiments, a more rapid method was used. Cells were suspended with a rubber scraper in 1.5 ml calcium-magnesium free Dulbecco's phosphate-buffered saline and protein determined on a 5 ul aliquot. […] […] One guaiacol unit is defined as a _A470 of 1.0 per minute which is equivalent to 150 nmols guaiacol oxidized per minute (Chance, B., et al., In Methods in Enzymology (Colonic. S. P., et al.), Academic Press, New York 2:164-[…] (1955)). One unit of iodide peroxidase is defined as a _A353 of 1.0 per minute which corresponds to 43 nmols I3-formed per minute (Magnusson, R. P., et al., J. Biol. Chem. 259:13783-13790 (1984)).

[13] = biological target: T1, recombinant human thyroid peroxidase (hTPO), full-length wild-type, expressed in CHO cells (human, UniProt P07202 19-933); experiment: lectin affinity chromatography of 35S-labeled CHO-TPO extract, then immunoprecipitation
T1 construct: Used on intact CHO cells (FACS), as CHO microsomes (ELISA) and as non-denatured detergent extracts (non-reducing Western blot, immunoprecipitation); also called human TPO; thyroid microsomal antigen
T1 sequence: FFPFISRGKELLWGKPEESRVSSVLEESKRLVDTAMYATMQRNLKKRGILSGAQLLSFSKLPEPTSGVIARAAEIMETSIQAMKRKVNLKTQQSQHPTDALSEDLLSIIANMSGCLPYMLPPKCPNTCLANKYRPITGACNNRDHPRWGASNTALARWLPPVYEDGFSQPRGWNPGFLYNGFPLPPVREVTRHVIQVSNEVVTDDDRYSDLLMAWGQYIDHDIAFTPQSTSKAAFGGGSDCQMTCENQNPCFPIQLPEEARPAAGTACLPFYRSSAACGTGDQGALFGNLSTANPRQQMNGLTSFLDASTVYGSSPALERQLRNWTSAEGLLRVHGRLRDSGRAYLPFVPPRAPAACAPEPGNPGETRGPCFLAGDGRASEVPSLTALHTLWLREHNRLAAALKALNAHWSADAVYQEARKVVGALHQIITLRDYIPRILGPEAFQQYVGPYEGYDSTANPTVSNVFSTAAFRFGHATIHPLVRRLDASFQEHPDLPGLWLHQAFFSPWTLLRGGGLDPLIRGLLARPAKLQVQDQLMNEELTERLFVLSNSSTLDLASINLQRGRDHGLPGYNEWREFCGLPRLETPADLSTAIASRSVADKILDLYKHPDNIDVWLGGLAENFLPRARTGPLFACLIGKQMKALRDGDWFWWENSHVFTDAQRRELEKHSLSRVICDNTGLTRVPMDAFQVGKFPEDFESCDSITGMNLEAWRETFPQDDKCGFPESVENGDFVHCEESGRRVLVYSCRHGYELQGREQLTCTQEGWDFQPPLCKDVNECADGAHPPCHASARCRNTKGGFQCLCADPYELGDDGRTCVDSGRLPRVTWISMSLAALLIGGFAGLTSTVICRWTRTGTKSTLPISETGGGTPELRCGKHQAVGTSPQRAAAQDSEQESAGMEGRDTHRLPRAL

Molecule: human TPO-specific Fab fragment SP1.2
- Kd [1]: 0.06 nM and 0.08 nM
- Kd [2]: 0.083 nM
- mean % inhibition of serum autoantibody binding to 125I-TPO [3]: 55%
- Kd [4]: 0.08 nM
- Kd [5]: 1 nM
- % inhibition [6]: 12 to 18%
- % inhibition [7]: 14%
- % inhibition [8]: 29%
- % inhibition [9]: 77%
- % inhibition [10]: 62%
- % inhibition [11]: 13%
- maximum % inhibition of serum autoantibody binding to 125I-TPO [12]: 36 to 72%

Molecule: tunicamycin
- Decrease of radiolabeled D-glucosamine incorporation into proteins (CHO-TPO12b cells): 56.3±4.8%

B1: mutated form of hTPO: truncated, secreted recombinant human TPO (848 amino acids) from CHO-TPO-M1-K1 cells (protein)
chain: FFPFISRGKELLWGKPEESRVSSVLEESKRLVDTAMYATMQRNLKKRGILSGAQLLSFSKLPEPTSGVIARAAEIMETSIQAMKRKVNLKTQQSQHPTDALSEDLLSIIANMSGCLPYMLPPKCPNTCLANKYRPITGACNNRDHPRWGASNTALARWLPPVYEDGFSQPRGWNPGFLYNGFPLPPVREVTRHVIQVSNEVVTDDDRYSDLLMAWGQYIDHDIAFTPQSTSKAAFGGGSDCQMTCENQNPCFPIQLPEEARPAAGTACLPFYRSSAACGTGDQGALFGNLSTANPRQQMNGLTSFLDASTVYGSSPALERQLRNWTSAEGLLRVHGRLRDSGRAYLPFVPPRAPAACAPEPGNPGETRGPCFLAGDGRASEVPSLTALHTLWLREHNRLAAALKALNAHWSADAVYQEARKVVGALHQIITLRDYIPRILGPEAFQQYVGPYEGYDSTANPTVSNVFSTAAFRFGHATIHPLVRRLDASFQEHPDLPGLWLHQAFFSPWTLLRGGGLDPLIRGLLARPAKLQVQDQLMNEELTERLFVLSNSSTLDLASINLQRGRDHGLPGYNEWREFCGLPRLETPADLSTAIASRSVADKILDLYKHPDNIDVWLGGLAENFLPRARTGPLFACLIGKQMKALRDGDWFWWENSHVFTDAQRRELEKHSLSRVICDNTGLTRVPMDAFQVGKFPEDFESCDSITGMNLEAWRETFPQDDKCGFPESVENGDFVHCEESGRRVLVYSCRHGYELQGREQLTCTQEGWDFQPPLCKDVNECADGAHPPCHASARCRNTKGGFQCLCADPYELGDDGRTCVDSGRLPRVT
- TPO activity in culture medium (Thyroid Peroxidase (TPO)): 1.0 guaiacol U/10 ml medium

Second part, the molecule after the results:

- binding result [13]: no binding
B2: peanut agglutinin (agarose-bound lectin) (other, UniProt P02872 24-259, looked up)
chain: AETVSFNFNSFSEGNPAINFQGDVTVLSNGNIQLTNLNKVNSVGRVLYAMPVRIWSSATGNVASFLTSFSFEMKDIKDYDPADGIIFFIAPEDTQIPAGSIGGGTLGVSDTKGAGHFVGVEFDTYSNSEYNDPPTDHVGIDVNSVDSVKTVPWNSVSGAVVKVTVIYDSSTKTLSVAVTNDNGDITTIAQVVDLKAKLPERVKFGFSASGSLGGRQIHLIRSWSFTSTLITTTRRS
notes: also called PNA

- TPO activity in culture medium (Thyroid Peroxidase (TPO)): no detectable enzymatic activity
B3: wild-type hTPO: full-length membrane-associated recombinant human TPO expressed in CHO cells (protein, UniProt P07202 1-933, looked up)
chain: MRALAVLSVTLVMACTEAFFPFISRGKELLWGKPEESRVSSVLEESKRLVDTAMYATMQRNLKKRGILSPAQLLSFSKLPEPTSGVIARAAEIMETSIQAMKRKVNLKTQQSQHPTDALSEDLLSIIANMSGCLPYMLPPKCPNTCLANKYRPITGACNNRDHPRWGASNTALARWLPPVYEDGFSQPRGWNPGFLYNGFPLPPVREVTRHVIQVSNEVVTDDDRYSDLLMAWGQYIDHDIAFTPQSTSKAAFGGGADCQMTCENQNPCFPIQLPEEARPAAGTACLPFYRSSAACGTGDQGALFGNLSTANPRQQMNGLTSFLDASTVYGSSPALERQLRNWTSAEGLLRVHARLRDSGRAYLPFVPPRAPAACAPEPGIPGETRGPCFLAGDGRASEVPSLTALHTLWLREHNRLAAALKALNAHWSADAVYQEARKVVGALHQIITLRDYIPRILGPEAFQQYVGPYEGYDSTANPTVSNVFSTAAFRFGHATIHPLVRRLDASFQEHPDLPGLWLHQAFFSPWTLLRGGGLDPLIRGLLARPAKLQVQDQLMNEELTERLFVLSNSSTLDLASINLQRGRDHGLPGYNEWREFCGLPRLETPADLSTAIASRSVADKILDLYKHPDNIDVWLGGLAENFLPRARTGPLFACLIGKQMKALRDGDWFWWENSHVFTDAQRRELEKHSLSRVICDNTGLTRVPMDAFQVGKFPEDFESCDSITGMNLEAWRETFPQDDKCGFPESVENGDFVHCEESGRRVLVYSCRHGYELQGREQLTCTQEGWDFQPPLCKDVNECADGAHPPCHASARCRNTKGGFQCLCADPYELGDDGRTCVDSGRLPRVTWISMSLAALLIGGFAGLTSTVICRWTRTGTKSTLPISETGGGTPELRCGKHQAVGTSPQRAAAQDSEQESAGMEGRDTHRLPRAL
modifications: full-length
notes: full-length membrane-associated recombinant human TPO expressed in CHO cells

- binding result [13]: no binding
B4: Ulex europaeus lectin (agarose-bound) (other)
chain: SDDLSFKFKNFSQNGKDLSFQGDASVIETGVLQLNKVGNNLPDETGGIARYIAPIHIWNCNTGEVASFITSFSFFMETSANPKAATDGLTFFLAPPDSPLRRAGGYFGLFEDTKDNDSSYQTVAVEFDTIGSPVNFDDPGFPHIGIDVNRVKSINAERWNKRYGLNNVANVEIIYEASSKTLTASLTYPSDQTSISVTSIVDLKEILPEWVSVGFSGGTYIGRQATHEVLNWYFTSNLINTNS
modifications: Lectin immobilised on agarose beads. The native lectin is a glycosylated homodimer; one subunit is given.
notes: also called UEA-F
